Measured values as given in patent US20060286636A1.

How the values were obtained:
[1] = biological target: rat Neuropilin-1/Fc chimeric receptor (rat) (UniProt Q9QWJ9); assay: competition plate binding assay, cold competitor against 125I-VEGF165 on immobilized rat neuropilin-1/Fc, without heparin
[2] = biological target: mouse VEGFR-2/Fc chimeric receptor (mouse) (UniProt P35918); assay: competition plate binding assay: cold competitor against 125I-VEGF165 on immobilized VEGFR-2 (KDR)/Fc, scintillation counting
mouse VEGFR-2/Fc chimeric receptor (mouse), sequence (P35918 20-762, stated change not applied): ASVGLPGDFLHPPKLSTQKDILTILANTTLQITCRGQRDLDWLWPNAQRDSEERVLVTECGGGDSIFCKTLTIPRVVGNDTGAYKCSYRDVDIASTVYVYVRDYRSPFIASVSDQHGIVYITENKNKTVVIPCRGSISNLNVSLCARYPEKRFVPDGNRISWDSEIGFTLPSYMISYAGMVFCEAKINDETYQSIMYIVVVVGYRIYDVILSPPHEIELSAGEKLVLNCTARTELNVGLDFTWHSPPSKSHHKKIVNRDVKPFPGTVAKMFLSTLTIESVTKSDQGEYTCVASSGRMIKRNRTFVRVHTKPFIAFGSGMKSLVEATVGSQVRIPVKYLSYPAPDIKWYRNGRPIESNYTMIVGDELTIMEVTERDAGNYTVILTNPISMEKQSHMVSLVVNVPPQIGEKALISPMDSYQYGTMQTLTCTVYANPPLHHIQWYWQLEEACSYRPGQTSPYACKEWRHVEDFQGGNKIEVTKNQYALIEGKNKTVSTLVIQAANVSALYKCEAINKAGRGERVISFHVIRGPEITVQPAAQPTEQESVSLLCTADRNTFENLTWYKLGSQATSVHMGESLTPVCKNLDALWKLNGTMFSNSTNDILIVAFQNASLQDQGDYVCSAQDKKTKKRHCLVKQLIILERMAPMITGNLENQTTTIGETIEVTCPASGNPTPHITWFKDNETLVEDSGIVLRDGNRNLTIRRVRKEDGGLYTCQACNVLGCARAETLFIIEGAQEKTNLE

[3] = biological target: mouse VEGFR-1/Fc chimeric receptor (mouse) (UniProt P35969); assay: competition plate binding assay: cold competitor against 125I-VEGF165 on immobilized VEGFR-1 (Flt-1)/Fc, scintillation counting
mouse VEGFR-1/Fc chimeric receptor (mouse), sequence (P35969 23-759, stated change not applied): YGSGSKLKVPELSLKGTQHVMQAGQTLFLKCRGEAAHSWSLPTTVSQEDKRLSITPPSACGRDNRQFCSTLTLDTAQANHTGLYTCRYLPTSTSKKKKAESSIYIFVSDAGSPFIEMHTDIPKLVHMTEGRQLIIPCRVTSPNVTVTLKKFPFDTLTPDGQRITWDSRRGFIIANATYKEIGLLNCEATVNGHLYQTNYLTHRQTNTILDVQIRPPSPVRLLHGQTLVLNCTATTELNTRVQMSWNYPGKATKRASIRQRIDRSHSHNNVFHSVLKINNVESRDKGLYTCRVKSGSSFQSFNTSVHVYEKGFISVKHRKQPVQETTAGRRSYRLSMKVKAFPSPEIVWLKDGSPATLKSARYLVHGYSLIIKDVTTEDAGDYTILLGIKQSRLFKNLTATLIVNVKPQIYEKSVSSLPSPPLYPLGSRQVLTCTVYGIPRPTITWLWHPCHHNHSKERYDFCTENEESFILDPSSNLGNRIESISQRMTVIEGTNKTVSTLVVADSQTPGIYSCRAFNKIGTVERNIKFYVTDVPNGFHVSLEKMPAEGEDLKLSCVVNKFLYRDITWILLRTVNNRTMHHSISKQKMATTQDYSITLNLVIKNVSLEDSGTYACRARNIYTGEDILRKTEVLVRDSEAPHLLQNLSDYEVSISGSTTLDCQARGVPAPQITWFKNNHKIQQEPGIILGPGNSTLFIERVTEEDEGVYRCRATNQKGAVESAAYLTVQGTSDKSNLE

rat Neuropilin-1/Fc chimeric receptor (rat), sequence (Q9QWJ9 22-854, stated change not applied): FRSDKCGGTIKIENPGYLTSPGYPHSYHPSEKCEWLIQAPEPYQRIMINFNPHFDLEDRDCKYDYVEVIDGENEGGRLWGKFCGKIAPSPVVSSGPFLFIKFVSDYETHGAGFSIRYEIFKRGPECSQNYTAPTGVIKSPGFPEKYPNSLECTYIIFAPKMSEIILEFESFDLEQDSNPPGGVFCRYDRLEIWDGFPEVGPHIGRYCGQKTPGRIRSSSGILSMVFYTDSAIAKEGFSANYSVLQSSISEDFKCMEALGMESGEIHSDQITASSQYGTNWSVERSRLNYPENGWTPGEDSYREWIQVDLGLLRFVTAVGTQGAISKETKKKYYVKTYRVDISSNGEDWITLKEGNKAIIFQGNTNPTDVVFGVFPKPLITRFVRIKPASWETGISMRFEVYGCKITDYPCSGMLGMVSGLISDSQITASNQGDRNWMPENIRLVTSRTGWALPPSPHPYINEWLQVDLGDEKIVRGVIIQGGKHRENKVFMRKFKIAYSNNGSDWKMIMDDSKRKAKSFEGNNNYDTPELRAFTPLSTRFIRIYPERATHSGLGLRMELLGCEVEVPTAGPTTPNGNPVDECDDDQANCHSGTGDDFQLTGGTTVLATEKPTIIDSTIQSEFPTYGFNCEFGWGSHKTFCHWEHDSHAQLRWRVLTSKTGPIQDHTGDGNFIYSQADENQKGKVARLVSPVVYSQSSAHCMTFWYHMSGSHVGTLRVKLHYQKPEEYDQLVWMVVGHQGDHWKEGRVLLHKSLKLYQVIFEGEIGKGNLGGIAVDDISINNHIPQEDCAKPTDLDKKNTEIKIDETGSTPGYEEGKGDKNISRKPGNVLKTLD

fold reduction of binding affinity compared to VEGF164 [1] [fold]	IC50 (read off the curve) [2] [nM]	IC50 (read off the curve) [3] [nM]	Substance
115	–	–	VEGF164 mutant R13A/R14A/R46A/R49A (from UniProt Q00731 27-190) (ligand)
–	0.08	0.09	VEGF164 double mutant R14A/R49A (from UniProt P15692 207-395) (ligand)
–	0.08	0.2	VEGF164 triple mutant R13A/R14A/R49A (from UniProt P15692 207-395) (ligand)
